Molecular target: T1, Flag-RFP (Flag-tagged RET finger protein) (Homo sapiens, UniProt P14373 1-513)
T1 construct: Expressed by transient transfection in HEK293 cells and tested in cell lysates by co-immunoprecipitation; also called TRIM27; pFlag-RFP; not shown: Flag tag from the pFlag vector
T1 sequence: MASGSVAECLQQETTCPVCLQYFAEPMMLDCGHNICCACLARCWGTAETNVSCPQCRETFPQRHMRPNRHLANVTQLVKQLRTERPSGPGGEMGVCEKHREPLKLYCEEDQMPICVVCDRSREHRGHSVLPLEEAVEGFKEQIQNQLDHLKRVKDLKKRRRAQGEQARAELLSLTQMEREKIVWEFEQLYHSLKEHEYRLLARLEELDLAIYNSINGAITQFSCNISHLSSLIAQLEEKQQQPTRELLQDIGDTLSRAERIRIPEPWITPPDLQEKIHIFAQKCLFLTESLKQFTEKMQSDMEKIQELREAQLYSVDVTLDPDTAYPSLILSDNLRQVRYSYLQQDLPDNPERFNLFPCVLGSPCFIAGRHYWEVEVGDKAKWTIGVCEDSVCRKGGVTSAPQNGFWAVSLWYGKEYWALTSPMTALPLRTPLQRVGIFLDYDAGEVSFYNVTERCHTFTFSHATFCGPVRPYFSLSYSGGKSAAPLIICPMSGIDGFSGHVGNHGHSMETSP
Assay: co-IP from HEK293 cells co-transfected with GFP-RFP and Flag-RFP; anti-Flag IP, anti-GFP blot
From the text: FIG. 7 RFP Oligomerization (a) RFP forms homo-oligomer, HEK293 cells were co-transfected with GFP-RFP and Flag-RFP, and immunoprecipitated with anti-Flag antibody followed by immunoblotting with anti-Flag and anti-GFP antibodies. Anti-HA antibody was used as mock. WCL: whole cell lysates. (b) Ring-B-box and Coiled-coil domains, but not Rfp domain, of RFP were required for its oligomerization. HEK293 cells were co-transfected with GFP-RFP and Flag tagged RFP deletion constructs, and immunoprecipitated with anti-Flag antibody. The pFlag vector was used as control. Arrow heads indicate Flag-tagged RFP constructs.

B1: GFP-RFP (other)
chain: T1 sequence
notes: RFP cDNA inserted into the pEGFP-C1 vector; also called RFP in pEGFP-C1; not shown: GFP (EGFP of the pEGFP-C1 vector) and linker
binding result: binds

Source: US20130177660A1 (NATIONAL UNIVERSITY CORPORATION NAGOYA UNIVERSITY, published 2013)
